{"source": "patent US11859229B2", "about": "“Polyvinyl alcohol-degrading enzyme and process for producing the same” (Hayashibara Co., Ltd., priority 2017, dated 2024)", "molecules": {"B1": {"name": "PVA-A: purified PVA-degrading hybrid enzyme from Pseudomonas sp. VT1B strain, amino acid sequence of SEQ ID NO: 2 (protein, listed as Pseudomonas sp.)", "chain": "AENWPMFGKNYENTRATSDTQISTANISTLNVVRRTTDGGITGTPTVVDGVAYYSDFSGYVKAVRVSDGVVLWRVRPQTTMLSPSPFVTADTVYVAGNNSYVYALNRANGAVRWTTQIETSPNSRISSSPIVVGNILIIGTGSYQVFLPATPMFRGRVAFLNATTGAILPYSTNMCPSASCGGGISVWSTAAIDESTRTGYIGTGQAYRDPAGPYSDALVAFNIDTGAIRWARQFLANDVYQLGGTLRYDYDVGAAPNLFVANGQRMVGVGGKDGTYRAFNRDTGAPIWNTPVGRGSAIGGVMQSTAYGDGRIYVTSNTSTIGSGRNDPVPATAEASALDAATGAPVWIRQLDAGGFGGVAYANGLMYASTWDGRLRVFNAANGNIVREVQVSPSRGAYVPAPTDGFPNGSAGGPVVYGNRVLMGYGWTWVLNINGGLTTMEATVGGGASQTVTLASSSDTYVQSGTPTTNYAYDVNLLARLADAEGLTRASFLQFPLTAVPAGTITSARLRLYGRHDAPTGTGQSVSVWPGTKTTTWSGPNVTYNNSSTETGVDFYATSSIATATVGITPQYYEWNVTDYVASRRSLGHATFGVAVNSAHQYRVTLNSADNTANRPELVVTVSGGTGSQLPGSCPSGFTARAGVNQGFMHNGVARGFVLNVPANVSTPRPVFVSLTGSVESTNENLGARGGAGALNNDGFLVIGPVRRCAGQDPNGAGTSVNGGTCNQAGTGGWNWNPWNEGRVFAAAGDPWKTAEGPDSQFLEAVVRCVAASYPVDSTRMYLGGISSGATMTHRALLFNSDFWAGGLPLSGEWYVSQDNGTAYPGADEFAARRQAVINNPTKIFQGRVGPLPLPATQSPMIVISMWGGANDIWYCGSTLCADYRPSTQAASNYFSALPNVVHVACSSSHGHQWPTQNRAAFNTWAATTLASHPKGTPASSFVLPPPPAGYSCRVGRYTDHYSGT"}}, "key": {"[1]": {"assay": "Degradation of PVA by PVA-degrading enzyme: time course of viscosity of reaction mixture", "format": "biochemical", "conditions": "for Viscosity of reaction mixture: 35° C.", "experimental": "Using the purified enzyme preparation of PVA-A obtained by the method of Experiment 2, the enzyme preparations varying the amount of enzyme were allowed to act on substrate solutions varying in PVA concentration, and the time course of the degradation of PVA was investigated by measuring the reduction of viscosity of the reaction mixture.\nPVA as a substrate (Reagent grade polyvinyl alcohol, polymerization degree: 2,000, commercialized by Nacalai Tesque Inc., Kyoto, Japan), 50 mM sodium phosphate buffer (pH 7.0), and the purified enzyme solution of PVA-A dissolved in the same buffer were mixed, and the reaction mixtures (volume: 1 mL) with the final concentration of PVA of 1%, 4% or 10% (w/v), and the amount of PVA-A per 1 g-PVA of 1 (or 1.25), 5 or 10 units as PVA-oxidizing activity was prepared. Then, those reaction mixtures in plastic tubes were reacted with shaking at 160 rpm at 35° C. for 1, 4 or 20 hours. In each PVA concentration, a reaction mixture prepared by substituting the enzyme solution to 50 mM phosphate buffer (pH 7.0) was used as control (the amount of enzyme: zero unit). To viscosity measurement using “DV-II+Pro”, a cone-plate viscometer manufactured by Brookfield, Boston, USA, 0.6 mL of a reaction mixture obtained by reacting under each condition was subjected."}, "[2]": {"assay": "Detection of β-diketone hydrolyzing activity (acetone from 2,4-pentanedione by gas chromatography)", "format": "biochemical", "design": "key: Yes: Acetone, a product by the hydrolysis, was qualitatively detected", "conditions": "qualitative", "excerpt": "As shown in the above (2), the PVA-degrading enzyme of the present invention has an activity of hydrolyzing […]-diketone, i.e., […]-diketone-hydrolyzing activity. Enzymes having β-diketone-hydrolyzing activity can hydrolyze an oxidized PVA having a […]-diketone structure (i.e., oxidized PVA). Beta-diketone-hydrolyzing activity can be detected by examining the activity of hydrolyzing 2, 4-pentanedione which is a model compound of oxidized PVA having a […]-diketone structure. Acetone and acetic acid are formed when a PVA-degrading enzyme hydrolyzes 2,4-pentanedione. Therefore, for example, […]-diketone-hydrolyzing activity can be detected by the following method using 2,4-pentanedione as a substrate.\n2,4-Pentanedione (Reagent grade, commercialized by Wako Pure Chemical Industries Co., Ltd., Osaka, Japan) was added to 50 mM sodium phosphate buffer (pH 7.0) to give a concentration of 0.2% (w/v) to make into a substrate solution. To 1 mL of the substrate solution, 0.2 mL of enzyme solution and 0.8 mL of 50 mM sodium phosphate buffer (pH 7.0) were added and then the mixture was shaken at 27° C. for 3 hours for the reaction. After the reaction, 2 mL of the reaction mixture was withdrawn and put in a glass vial, and then the vial was sealed and heated at 95° C. for 40 min. […]"}}}
{"molecule": "B1", "values": [{"measurement": "Viscosity of reaction mixture", "setting": "[1]; PVA 1% (w/v), 1.25 U/g-PVA, 0 hour", "value": 2.7, "unit": "mPa·s"}, {"measurement": "Viscosity of reaction mixture", "setting": "[1]; PVA 1% (w/v), 1.25 U/g-PVA, 1 hour", "value": 2.3, "unit": "mPa·s"}, {"measurement": "Viscosity of reaction mixture", "setting": "[1]; PVA 1% (w/v), 1.25 U/g-PVA, 4 hours", "value": 1.7, "unit": "mPa·s"}, {"measurement": "Viscosity of reaction mixture", "setting": "[1]; PVA 1% (w/v), 1.25 U/g-PVA, 20 hours", "value": 1.4, "unit": "mPa·s"}, {"measurement": "Viscosity of reaction mixture", "setting": "[1]; PVA 1% (w/v), 5 U/g-PVA, 0 hour", "value": 2.5, "unit": "mPa·s"}, {"measurement": "Viscosity of reaction mixture", "setting": "[1]; PVA 1% (w/v), 5 U/g-PVA, 1 hour", "value": 1.6, "unit": "mPa·s"}, {"measurement": "Viscosity of reaction mixture", "setting": "[1]; PVA 1% (w/v), 5 U/g-PVA, 4 hours", "value": 1.3, "unit": "mPa·s"}, {"measurement": "Viscosity of reaction mixture", "setting": "[1]; PVA 1% (w/v), 5 U/g-PVA, 20 hours", "value": 1.2, "unit": "mPa·s"}, {"measurement": "Viscosity of reaction mixture", "setting": "[1]; PVA 1% (w/v), 10 U/g-PVA, 0 hour", "value": 2.7, "unit": "mPa·s"}, {"measurement": "Viscosity of reaction mixture", "setting": "[1]; PVA 1% (w/v), 10 U/g-PVA, 1 hour", "value": 1.4, "unit": "mPa·s"}, {"measurement": "Viscosity of reaction mixture", "setting": "[1]; PVA 1% (w/v), 10 U/g-PVA, 4 hours", "value": 1.3, "unit": "mPa·s"}, {"measurement": "Viscosity of reaction mixture", "setting": "[1]; PVA 1% (w/v), 10 U/g-PVA, 20 hours", "value": 1.2, "unit": "mPa·s"}, {"measurement": "Viscosity of reaction mixture", "setting": "[1]; PVA 4% (w/v), 1 U/g-PVA, 0 hour", "value": 34.0, "unit": "mPa·s"}, {"measurement": "Viscosity of reaction mixture", "setting": "[1]; PVA 4% (w/v), 1 U/g-PVA, 1 hour", "value": 35.6, "unit": "mPa·s"}, {"measurement": "Viscosity of reaction mixture", "setting": "[1]; PVA 4% (w/v), 1 U/g-PVA, 4 hours", "value": 18.6, "unit": "mPa·s"}, {"measurement": "Viscosity of reaction mixture", "setting": "[1]; PVA 4% (w/v), 1 U/g-PVA, 20 hours", "value": 6.6, "unit": "mPa·s"}, {"measurement": "Viscosity of reaction mixture", "setting": "[1]; PVA 4% (w/v), 5 U/g-PVA, 1 hour", "value": 30.3, "unit": "mPa·s"}, {"measurement": "Viscosity of reaction mixture", "setting": "[1]; PVA 4% (w/v), 5 U/g-PVA, 4 hours", "value": 11.9, "unit": "mPa·s"}, {"measurement": "Viscosity of reaction mixture", "setting": "[1]; PVA 4% (w/v), 5 U/g-PVA, 20 hours", "value": 3.7, "unit": "mPa·s"}, {"measurement": "viscosity after reaction relative to the start of the reaction", "setting": "[1]; PVA 4% (w/v), 5 units, 20 hours", "value": "about 1/10"}, {"measurement": "Viscosity of reaction mixture", "setting": "[1]; PVA 10% (w/v), 1 U/g-PVA, 0 hour", "value": 2530, "unit": "mPa·s"}, {"measurement": "Viscosity of reaction mixture", "setting": "[1]; PVA 10% (w/v), 1 U/g-PVA, 1 hour", "value": 1490, "unit": "mPa·s"}, {"measurement": "Viscosity of reaction mixture", "setting": "[1]; PVA 10% (w/v), 1 U/g-PVA, 4 hours", "value": 1550, "unit": "mPa·s"}, {"measurement": "Viscosity of reaction mixture", "setting": "[1]; PVA 10% (w/v), 1 U/g-PVA, 20 hours", "value": 873, "unit": "mPa·s"}, {"measurement": "Viscosity of reaction mixture", "setting": "[1]; PVA 10% (w/v), 5 U/g-PVA, 1 hour", "value": 1520, "unit": "mPa·s"}, {"measurement": "Viscosity of reaction mixture", "setting": "[1]; PVA 10% (w/v), 5 U/g-PVA, 4 hours", "value": 769, "unit": "mPa·s"}, {"measurement": "Viscosity of reaction mixture", "setting": "[1]; PVA 10% (w/v), 5 U/g-PVA, 20 hours", "value": 231, "unit": "mPa·s"}, {"measurement": "viscosity after reaction relative to the start of the reaction", "setting": "[1]; PVA 10% (w/v), 5 units per 1 g of PVA, 20 hours", "value": "about 1/10"}, {"measurement": "2,4-Pentanedione-Degrading Activity", "setting": "[2]", "value": "Yes*"}]}
